Patent US8283180B2, “Periodic acid-schiff staining with detection in the infrared range” (Amicus Therapeutics, Inc., priority 2007, dated 2012)

System: PM-12 cells
Assay: PAS staining of Pompe fibroblasts with IR fluorescence detection after diastase digestion
Format: cell-based, human
Settings: 20,000 cells/well; 0.1% diastase, 5 to 60 minutes; detection at 800 nm; FIG. 2
Method: PM-11 Pompe fibroblasts were obtained from Dr. W. J. Kleijer, Department of Cell Biology & Genetics, Erasmus University, The Netherlands. PM-12 Pompe fibroblasts were purchased from Coriell (catalog #GM03329). CRL-2076 fibroblasts (negative control) were purchased from American Type Culture Collection (Manassas, Va.). All fibroblast lines were routinely cultured at 37° C., 5% CO2, in growth medium consisting of Dulbecco's Modified […] Medium containing 15% fetal bovine serum (Hyclone, Logan, Utah), 100 U/mL penicillin; 100 μg/mL streptomycin, and 2 mM L-glutamine.
Prior to the assay, borosilicate coverslip glass bottom 96-well black plates (Nunc; catalog #164588) are coated with superfibronectin (Sigma). […] Briefly, 100 μL of 5 μg/mL superfibronectin (Sigma) is pipetted into each well and the plate is incubated at 37° C. for 2 hours. […]
Following the overnight incubation, the plate is read on a laser-based Odyssey IR scanner (Li-Cor, Inc.) at emission wavelengths of 700 nm (near-IR) or 800 nm (IR). The detector counts IR and near-IR fluorescence emissions independently or simultaneously from the samples, and reports these counts as arbitrary units. The detector scans across an entire microtiter plate, thus can read two fluorophores from any microtiter formatted sample array (96-well, 384-well, or other) within a few minutes. […]

B1: diastase: α-amylase type VI-B from porcine pancreas; breaks down glycogen, used as negative control for PAS staining (protein, UniProt P00690 16-511, looked up)
Pancreatic alpha-amylase: QYAPQTQSGRTSIVHLFEWRWVDIALECERYLGPKGFGGVQVSPPNENIVVTNPSRPWWERYQPVSYKLCTRSGNENEFRDMVTRCNNVGVRIYVDAVINHMCGSGAAAGTGTTCGSYCNPGNREFPAVPYSAWDFNDGKCKTASGGIESYNDPYQVRDCQLVGLLDLALEKDYVRSMIADYLNKLIDIGVAGFRIDASKHMWPGDIKAVLDKLHNLNTNWFPAGSRPFIFQEVIDLGGEAIQSSEYFGNGRVTEFKYGAKLGTVVRKWSGEKMSYLKNWGEGWGFMPSDRALVFVDNHDNQRGHGAGGASILTFWDARLYKVAVGFMLAHPYGFTRVMSSYRWARNFVNGQDVNDWIGPPNNNGVIKEVTINADTTCGNDWVCEHRWRQIRNMVWFRNVVDGQPFANWWANGSNQVAFGRGNRGFIVFNNDDWQLSSTLQTGLPGGTYCDVISGDKVGNSCTGIKVYVSSDGTAQFSISNSAEDPFIAIHAESKL
time-dependent decrease in PAS stain IR fluorescence signal: about 2 fold
